The sequences below were run on K4 kissing-loop RNA reporter (assay: apparent KD of K4 kissing-loop reporter; higher = weaker reporter binding). Conditions: Eterna round: R107; input ligand: none.
Protocol: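 RNA-MaP round R107: designed RNA switches with theophylline, tryptophan, arginine or FMN aptamers are transcribed on-chip within common flanks. They are titrated with a labelled K4 kissing-loop RNA reporter in RNA-MaP buffer (100 mM Tris pH 7.5, 80 mM KCl, 4 mM MgCl2), without ligand or with the indicated ligand. Median apparent KD per design.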
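Also: bound reporter read as fluorescence of individual clusters on recovered sequencing chips by microscopy, with normalized cluster intensities fitted with a binding model.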

Sequence	apparent KD of K4 kissing-loop reporter
UUAAUAAUUCAAGGAUAUGUUUUCUAUUUCGAGUGAUGUUCGGAAUUAAUAAAUUUAAAAGAUUAUACAGAAGGUGAUGGAUAGU [Cynwulf-mod#4]	109 nM
GACAUCUAUCGCCGAUAGUGUUUAUCUUGGGAGGAUAUGUCAGCGGACAGAAGGCCCAGUGAUGUUGGGUAGAUGACCGUUGCUU [Edbiza]	135 nM
AGUGGACGUGUCCGGAGUGAUGUUCCGGAUACCAGACACGAAAGUGUCCCUUGGCAGCCGGAGUGAUGUUCCGGCGUUCACUAAA [Omei KL Theo A Exc B v1]	243 nM
CUGGGUUGACGAAAAGUCAACAAAAGAGAAGGAGCGCACGAAAGUGCAGGUAGGUCGCUCAAUCCAGUGAUGUUGGGUCAUCCAG [#SwitchBubble 14 #K4Late]	800 nM
GGAUAGGACAGAGGAUAUGGUAGUGAUGUUACCAAACUGGUUACUAAUGUCAGAAAACUGGCAAAUCCAGAAGGCUGUCCUAUCG [KL-XFMN-B13]	85.2 nM
GUCUCCGUCGAUGAUACCAGUCGAUGUACGUCAGGUACCCUUUGAGUGAUGUUCAGAUUAGACCCUUGGCAGCAUAUCGAGGCUC [theeternabot_exclusion_KL_Theo_B_24]	514 nM
GGGAACUCUUACGAUACCAGCCGGAGUGAUGUUCCGUGCUUGGACGUAGUAACCCGCACCGGCCCUUGGCAGCGUGGAUCUUGUG [Esgeonin]	78.1 nM
UCCUAGGCUCGAAAGAGCCUAGGAUUAUCUCAGGAUAUCCGGAAACGGAGAAGGGAGAAACUAGUGAUGUUAGGGAUUCCCUAUU	213 nM
UUUGGUUUCUCGGCCGCCACUCGUUGUCUAUGGGCUUCAGGGAUAUAGUGAUGUUAUGUAUAGAAGAGGACCGGGAGAAGGUUUU [ExTryptoB.Dv]	683 nM
GUGGGCUCGGGAGGAUAUGAGUCUAGUGAUGUUAGGCGGUCCAUGCGCGUGGCGCGUUAUGCCCUUUUAGAAGGCCCGAGCCCUC [#2 Exclusion - FMN B Attempt #24 (HarryS)]	90.1 nM
GGUGACGGCCAGGAGUGAUGUAUAGAAUAGCGAGGACCGGUACGGCCGCCACUCGUGAAGAAAAGGGAGUGAUGUUCCGUAAUGU [Kazoo]	75.3 nM
GUGCGGUGGAGGCUACCGCUACUCUGAGAAGGAGCGCAGAAGACUGCAGGUAGGUCGCUUAGAGCUUGCAGUGAUGUUGCAAGUU [KL-SSArg-A18]	183 nM
CUUCUUCUUCCAAUCUCGGCCAACACGGGACGAGGACCGGUACGGCCGCCACUCGUGCAGUGAUGUUGCACGAUGGUGACGGAGA [Engebiisso]	84.6 nM
CCGCCGGUCGGAAGGAGCGCACGCCAGAGUGAUGUUCUGGCGCGGGCACUUUAUGCCCGCGUGCAGGUAGGUCGCCGAUUCUGGC [Mabema]	445 nM
UGGCGUAGAACCGCCGAAUCGCUGUGAGAAGGAGCGGUAAAAUUGCCAGGUAGGUCGCUCACAGCCUCACAGUGAUGUUGUGGGA [Cequralaza]	117 nM
GUAUCGCUAGGAGGAUAUUUCAAUUCGCCUAUAAAAGGUGAUACGGAGUGAUGUUCCGAUUUACGGAAAGAAGGCCUAGUGAUAC [FMN B 9]	282 nM
AACUGUCAAGGACAACAUUACUGAGGUGAUACCAGCAUCGAAAGAUGCCCUUGGCAGCACUAACUUGCAGUGAUGUUGCAAGUAA [BrourdMod 2 - Jieux - Exclusion - Theophylline A]	193 nM
UGGACGUUAUACAAUAAGUAUAACUGGGAUACCAGUGACGAAAGUCACCCUUGGCAGCUCAACUGCCAGUGAUGUUGGUAGUCCA [Astros-Eli-mod#5]	200 nM
AGGUCCGAGCCUGCAAAGGCUCGGACCUGUUAGGAUAUGACGUUAUUCAGAAGGGAUGGGUGGAGUGAUGUUCCACCCGCAAGGG [#2 Same State - FMN A Attempt #7 (HarryS)]	120 nM
AAUUUAGUGACGGCCGCCACUAGGGUGAUUUUUUUGUUUGAGUGAUGUUUUGAUGUUUGAUUUUGUAGGACCGGGUUAGGUGAUG [cccmullin]	343 nM
AGUUCUUGCCGAAGGAGCGAGGCAGAGUGAUGUUCUGCAAAGGUCGAAAGACCUUAACUGCCUCAGGUAGGUCGCGGCAUGAACA [KL-XARG-B23]	624 nM
GAAGUACAGGCGGCCGCCACUAGUGAUGUUAGUGAUAAAAGAUAUAGUAAAUAUCGGCAUGUAGAUAGGACCGGGCCUGAUGGAG [ggbgmullin]	256 nM

Same assay, conditions: Eterna round: R107; input ligand: theophylline 20 uM

Sequence	apparent KD of K4 kissing-loop reporter
GGCAGAGUGAUGUUCGCCCUUUACCUUGAUACCAGUUCAUCUCAAAACCCUUGGCAGCAAGUGUGUAAGAGCGGUAUUGGUCAAU [theeternabot_exclusion_KL_Theo_A_1]	359 nM
GGAUCCACCAGUGAUGUUGGAGAAAACUCUAAGGAUAUGACGAAAGUCAGAAGGUAGUAGACUGGACAAAGUCCGGUCGGAUCCA [FmnA 23 U30+A56]	661 nM
GGGCGCGGCGCGGCCGCCACUGGGCCUGGGCGCUCGCUGAGUGAUGUUCGUCGGCGGCUGGGUCGUAGGACCGGGUGCCGGCUGG [BDazzled - #4 SS Tryptophan B]	627 nM
UGAUACCAGACGGCCGCCACUUCCGUAAGUCAAAGACUUACCAAGGGAAUCGUCCAGUGAUGUUGGAGGACCGGGUCUGGUAUCU [FiskerMod 6 - Jieux - Exclusion - Tryptophan B]	959 nM
GCCGUAGAUUGAAGGAGCGCCUUCUUACCAAGAGUGAUGUUCUUUGGUACCAUGUUCAGCAGGCAGGUAGGUCGCAAUCUACGGC	155 nM
